Patent US20140072613A1, “Compositions and Methods for Treating Cutaneous Scarring” (priority 2012, published 2014)

What was measured:
Assay in all cases: biochemical
Assay type in all cases: biochemical
266 human kinases [1] = target: T1, 266 human kinases (Homo sapiens, UniProt O60285); settings: ARK5(h); 100 μM
T1 sequence (O60285 1-661): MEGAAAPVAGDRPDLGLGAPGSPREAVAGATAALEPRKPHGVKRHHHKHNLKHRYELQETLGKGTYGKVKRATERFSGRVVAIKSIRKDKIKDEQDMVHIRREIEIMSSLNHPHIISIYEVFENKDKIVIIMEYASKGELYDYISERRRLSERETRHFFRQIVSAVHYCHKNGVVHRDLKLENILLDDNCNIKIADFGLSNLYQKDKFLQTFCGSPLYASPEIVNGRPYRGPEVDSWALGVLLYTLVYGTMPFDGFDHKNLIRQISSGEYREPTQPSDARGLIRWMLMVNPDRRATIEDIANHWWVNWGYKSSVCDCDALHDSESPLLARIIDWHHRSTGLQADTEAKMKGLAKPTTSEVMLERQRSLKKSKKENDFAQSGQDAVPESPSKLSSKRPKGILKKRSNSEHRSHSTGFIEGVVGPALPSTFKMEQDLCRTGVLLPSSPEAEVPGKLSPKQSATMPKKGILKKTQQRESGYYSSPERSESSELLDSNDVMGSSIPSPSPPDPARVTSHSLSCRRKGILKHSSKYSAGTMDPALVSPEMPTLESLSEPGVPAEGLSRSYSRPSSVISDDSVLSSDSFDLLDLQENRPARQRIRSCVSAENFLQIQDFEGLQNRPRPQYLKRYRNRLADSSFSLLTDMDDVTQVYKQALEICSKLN
Method in brief: (§1)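 Read-out by scintillation counting of radiolabelled, positively charged substrate bound to negatively charged filter; activity normalised to 100% control. Phosphate transferred from radiolabelled ATP.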

266 human kinases [2] = target: T2, 266 human kinases (Homo sapiens, UniProt Q08881); settings: Itk(h); 100 μM
T2 sequence (Q08881 1-620): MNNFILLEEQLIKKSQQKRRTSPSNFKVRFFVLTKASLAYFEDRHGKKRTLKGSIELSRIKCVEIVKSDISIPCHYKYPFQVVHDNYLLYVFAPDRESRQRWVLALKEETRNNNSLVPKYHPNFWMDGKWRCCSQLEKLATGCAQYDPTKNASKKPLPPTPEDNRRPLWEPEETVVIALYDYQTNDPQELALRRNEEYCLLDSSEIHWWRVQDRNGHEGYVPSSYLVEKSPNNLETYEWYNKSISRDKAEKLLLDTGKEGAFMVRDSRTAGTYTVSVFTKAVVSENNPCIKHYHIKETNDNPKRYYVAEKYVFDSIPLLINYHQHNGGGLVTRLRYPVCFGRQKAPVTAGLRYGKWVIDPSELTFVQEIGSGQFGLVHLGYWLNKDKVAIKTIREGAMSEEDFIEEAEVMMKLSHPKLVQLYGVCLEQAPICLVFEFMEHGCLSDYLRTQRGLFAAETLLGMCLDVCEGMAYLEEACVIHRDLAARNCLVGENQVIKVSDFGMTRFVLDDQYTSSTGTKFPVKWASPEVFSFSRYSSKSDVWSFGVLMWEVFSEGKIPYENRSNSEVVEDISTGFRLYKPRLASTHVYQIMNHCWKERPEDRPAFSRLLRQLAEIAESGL
Method in brief: as §1

266 human kinases [3] = target: T3, 266 human kinases (Homo sapiens, UniProt Q02156); settings: PKCε(h); 100 μM
T3 sequence (Q02156 1-737): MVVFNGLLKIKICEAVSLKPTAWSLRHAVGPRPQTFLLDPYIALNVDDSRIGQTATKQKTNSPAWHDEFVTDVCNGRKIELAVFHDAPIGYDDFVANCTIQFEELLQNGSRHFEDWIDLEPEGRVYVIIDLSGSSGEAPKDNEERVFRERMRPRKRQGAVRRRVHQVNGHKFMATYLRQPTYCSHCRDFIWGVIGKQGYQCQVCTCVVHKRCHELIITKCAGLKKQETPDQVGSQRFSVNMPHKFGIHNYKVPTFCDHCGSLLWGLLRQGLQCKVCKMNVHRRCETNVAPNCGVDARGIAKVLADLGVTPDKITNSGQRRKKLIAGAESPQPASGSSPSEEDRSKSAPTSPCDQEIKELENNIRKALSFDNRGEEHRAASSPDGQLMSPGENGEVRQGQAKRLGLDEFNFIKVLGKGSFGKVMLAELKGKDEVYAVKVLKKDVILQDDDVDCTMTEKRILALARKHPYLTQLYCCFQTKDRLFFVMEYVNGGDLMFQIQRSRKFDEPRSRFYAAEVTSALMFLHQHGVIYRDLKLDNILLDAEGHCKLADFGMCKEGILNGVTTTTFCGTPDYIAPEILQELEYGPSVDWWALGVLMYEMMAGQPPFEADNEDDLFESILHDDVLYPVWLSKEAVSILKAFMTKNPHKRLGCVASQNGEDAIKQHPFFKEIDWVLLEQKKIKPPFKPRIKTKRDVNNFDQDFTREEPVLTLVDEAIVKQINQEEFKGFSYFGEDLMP
Method in brief: as §1

266 human kinases [4] = target: T4, 266 human kinases (Homo sapiens, UniProt Q8NG66); settings: NEK11(h); 100 μM
T4 sequence (Q8NG66 1-645): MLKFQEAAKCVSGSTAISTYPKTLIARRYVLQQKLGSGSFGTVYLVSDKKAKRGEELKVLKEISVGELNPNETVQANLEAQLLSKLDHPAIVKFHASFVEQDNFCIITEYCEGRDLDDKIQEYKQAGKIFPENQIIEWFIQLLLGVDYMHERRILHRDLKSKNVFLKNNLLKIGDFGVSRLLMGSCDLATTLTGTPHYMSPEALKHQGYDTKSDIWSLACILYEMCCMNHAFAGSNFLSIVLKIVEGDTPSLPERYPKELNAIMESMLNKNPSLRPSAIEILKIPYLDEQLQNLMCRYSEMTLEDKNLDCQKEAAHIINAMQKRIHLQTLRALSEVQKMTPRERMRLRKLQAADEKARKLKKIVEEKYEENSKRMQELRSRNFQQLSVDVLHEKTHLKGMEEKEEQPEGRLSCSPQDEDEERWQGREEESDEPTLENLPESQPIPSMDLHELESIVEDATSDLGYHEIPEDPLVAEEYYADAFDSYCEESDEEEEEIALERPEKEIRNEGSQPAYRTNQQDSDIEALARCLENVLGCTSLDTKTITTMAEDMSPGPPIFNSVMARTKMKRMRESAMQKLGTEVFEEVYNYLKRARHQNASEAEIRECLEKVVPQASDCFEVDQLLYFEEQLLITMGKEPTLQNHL
Method in brief: as §1

266 human kinases [5] = target: 266 human kinases (Homo sapiens, UniProt P08922); settings: Ros(h); 100 μM
Sequence of 266 human kinases (Homo sapiens, UniProt P08922) (P08922 28-2347): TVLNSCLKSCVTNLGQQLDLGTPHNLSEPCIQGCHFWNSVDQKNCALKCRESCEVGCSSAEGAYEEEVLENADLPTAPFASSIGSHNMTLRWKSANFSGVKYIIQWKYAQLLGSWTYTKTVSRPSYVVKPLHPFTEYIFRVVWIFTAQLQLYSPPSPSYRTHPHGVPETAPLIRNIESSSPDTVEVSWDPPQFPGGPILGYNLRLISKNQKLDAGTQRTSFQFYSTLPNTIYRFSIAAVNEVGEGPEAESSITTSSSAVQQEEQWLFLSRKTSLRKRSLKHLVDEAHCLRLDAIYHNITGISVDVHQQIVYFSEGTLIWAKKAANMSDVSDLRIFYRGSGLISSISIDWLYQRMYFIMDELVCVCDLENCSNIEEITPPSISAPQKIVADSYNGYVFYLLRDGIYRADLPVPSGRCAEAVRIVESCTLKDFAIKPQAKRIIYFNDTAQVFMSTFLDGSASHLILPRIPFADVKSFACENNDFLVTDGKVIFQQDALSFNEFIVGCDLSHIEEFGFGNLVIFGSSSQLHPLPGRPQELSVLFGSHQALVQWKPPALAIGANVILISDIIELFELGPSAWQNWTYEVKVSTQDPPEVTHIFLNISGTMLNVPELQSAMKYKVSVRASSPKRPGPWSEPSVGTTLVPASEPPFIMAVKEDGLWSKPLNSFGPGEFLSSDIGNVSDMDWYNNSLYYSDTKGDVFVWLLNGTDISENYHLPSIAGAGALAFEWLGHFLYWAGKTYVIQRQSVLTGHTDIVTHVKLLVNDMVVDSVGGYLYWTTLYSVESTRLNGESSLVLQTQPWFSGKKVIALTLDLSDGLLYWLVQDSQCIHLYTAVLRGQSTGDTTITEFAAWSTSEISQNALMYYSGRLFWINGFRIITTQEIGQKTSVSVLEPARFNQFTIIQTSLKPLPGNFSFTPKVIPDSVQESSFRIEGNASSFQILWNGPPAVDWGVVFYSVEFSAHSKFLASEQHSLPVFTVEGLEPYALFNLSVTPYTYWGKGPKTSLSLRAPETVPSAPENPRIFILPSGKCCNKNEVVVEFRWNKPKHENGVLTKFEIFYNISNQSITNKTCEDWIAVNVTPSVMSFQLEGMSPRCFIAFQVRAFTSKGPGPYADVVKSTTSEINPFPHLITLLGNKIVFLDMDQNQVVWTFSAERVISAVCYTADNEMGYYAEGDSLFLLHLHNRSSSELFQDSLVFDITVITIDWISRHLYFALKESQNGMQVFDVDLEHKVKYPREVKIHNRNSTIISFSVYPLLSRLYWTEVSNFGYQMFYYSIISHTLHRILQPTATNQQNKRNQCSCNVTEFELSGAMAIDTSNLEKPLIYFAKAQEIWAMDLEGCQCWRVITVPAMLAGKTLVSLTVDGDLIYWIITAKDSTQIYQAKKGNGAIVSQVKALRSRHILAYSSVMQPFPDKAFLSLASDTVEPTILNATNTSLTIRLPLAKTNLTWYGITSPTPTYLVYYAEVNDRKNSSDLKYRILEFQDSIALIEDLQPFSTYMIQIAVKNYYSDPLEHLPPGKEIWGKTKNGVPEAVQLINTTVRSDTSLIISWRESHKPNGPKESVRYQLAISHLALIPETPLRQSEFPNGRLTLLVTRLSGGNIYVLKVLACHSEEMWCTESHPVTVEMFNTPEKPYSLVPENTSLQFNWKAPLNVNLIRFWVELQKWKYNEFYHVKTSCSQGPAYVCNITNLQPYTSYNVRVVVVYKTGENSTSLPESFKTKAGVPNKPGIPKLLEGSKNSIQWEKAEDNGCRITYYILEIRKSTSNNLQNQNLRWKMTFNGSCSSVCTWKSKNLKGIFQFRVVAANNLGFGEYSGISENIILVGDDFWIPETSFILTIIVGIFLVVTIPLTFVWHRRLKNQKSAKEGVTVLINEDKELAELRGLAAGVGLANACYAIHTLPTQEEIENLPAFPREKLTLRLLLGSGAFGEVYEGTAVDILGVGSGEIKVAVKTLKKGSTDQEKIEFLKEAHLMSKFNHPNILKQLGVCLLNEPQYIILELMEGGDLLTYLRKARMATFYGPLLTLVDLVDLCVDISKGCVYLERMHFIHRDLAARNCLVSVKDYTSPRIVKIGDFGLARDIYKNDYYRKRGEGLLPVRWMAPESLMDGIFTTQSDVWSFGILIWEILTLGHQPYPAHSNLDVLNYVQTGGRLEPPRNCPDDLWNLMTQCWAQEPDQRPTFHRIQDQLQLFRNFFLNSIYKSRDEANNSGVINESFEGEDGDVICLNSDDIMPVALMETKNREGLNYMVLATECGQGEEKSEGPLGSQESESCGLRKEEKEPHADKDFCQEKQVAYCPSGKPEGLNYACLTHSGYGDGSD
Method in brief: as §1

266 human kinases [6] = target: 266 human kinases (Homo sapiens, UniProt Q13554); settings: CaMKIIβ(h); 100 μM
Sequence of 266 human kinases (Homo sapiens, UniProt Q13554) (Q13554 whole entry): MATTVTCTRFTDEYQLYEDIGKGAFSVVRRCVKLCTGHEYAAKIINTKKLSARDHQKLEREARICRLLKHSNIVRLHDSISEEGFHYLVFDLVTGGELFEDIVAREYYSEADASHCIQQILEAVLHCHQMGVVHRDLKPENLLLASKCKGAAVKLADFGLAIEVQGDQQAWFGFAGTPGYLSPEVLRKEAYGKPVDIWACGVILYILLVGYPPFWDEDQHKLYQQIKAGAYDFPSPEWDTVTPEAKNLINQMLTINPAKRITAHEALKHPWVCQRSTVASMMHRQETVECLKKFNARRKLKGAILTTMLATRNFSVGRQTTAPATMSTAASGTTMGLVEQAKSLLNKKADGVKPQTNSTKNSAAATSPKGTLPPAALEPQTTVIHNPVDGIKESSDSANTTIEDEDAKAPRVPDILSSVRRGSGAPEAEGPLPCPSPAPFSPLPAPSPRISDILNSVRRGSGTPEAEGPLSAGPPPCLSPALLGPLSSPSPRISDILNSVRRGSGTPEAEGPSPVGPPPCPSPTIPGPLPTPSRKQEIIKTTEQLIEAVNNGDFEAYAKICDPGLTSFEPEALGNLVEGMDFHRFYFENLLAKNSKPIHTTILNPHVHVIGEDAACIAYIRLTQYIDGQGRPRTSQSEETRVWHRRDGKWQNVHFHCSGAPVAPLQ
Method in brief: as §1

Sequence | % activity (266 human kinases [1]) | % activity (266 human kinases [2]) | % activity (266 human kinases [3]) | % activity (266 human kinases [4]) | % activity (266 human kinases [5]) | % activity (266 human kinases [6])
HRRIKAWLKKIKALARQLGVAA (mammal) [MMI-0500] | 20% | 7% | 23% | 2% | 150% | 3%
YARAAARQARAKALNRQLGVA (mammal) [MMI-0200] | 93% | 98% | 98% | 95% | 86% | 53%
